In the supplement of paper PMC10567573:

B1: KRT15 (parent)
chain: SNFHINVEESVDGQVVSSHKREI

Variants of: B1
Assay: protein stability index of a GFP-peptide fusion (GPS, HEK-293T) (PSI 1-6); higher = more stable
Conditions: c terminus: native
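Note: lentivirally expressed fusions sorted by FACS into six bins by GFP to DsRed ratio, PSI derived from sequencing read proportions per bin multiplied by bin number.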

Protein stability index: each site, then its substitutions
N6: C 1.9, H 2.28, K 1.78, D 1.54, L 2.23, Q 2.27, Y 1.06, T 2.42, F 2.11, E 1.88, M 2.11, P 1.9, G 2.24, I 3.69, S 1.63
H4: Y 2.37, V 1.03
V7: C 4, I 2.18, P 2.14, T 3.07, M 1.14, A 2.76, H 2.11, N 2.1, G 3.08, D 2.01, S 2.12, K 2.1, E 3.63, W 2.64, Q 2.88, L 1.34, R 2.78, Y 1.36
I5: Y 1.24, T 3.02, D 3.64, S 3.06, F 2.22, A 3.14, R 2.67, M 2.59, P 2.98, Q 3.1, G 2.8, H 3.01, W 1.63, L 1.71, C 4.36, K 2.14, V 3.37, N 3.36, E 3.97
G13: N 2.3, C 1.98, E 1.89, P 2.19, D 2.36, T 2.18, S 1.81, L 1.78, H 1.64, V 1.55, Q 1.96, R 2.35, A 2.73, K 2.29, F 1.86, Y 2.59, I 2.02
V11: L 1.34, Y 1.44, A 1.94, N 2.33, S 2.48, K 1.53, G 1.7, H 1.83, M 1.85, T 1.67, E 2.36, Q 2.3, P 2.33, C 2.69, I 2.17, D 2.09, F 3.87, W 1.86, R 1.46
D12: H 2.38, W 3.13, T 2.21, Y 1, S 2.07, I 1.34, P 1.95, V 2.65, M 2.69, E 2.21, N 1.82, C 3.28, G 1.45, K 1.31, R 3.65, Q 2.07
S10: R 2.21, P 1.91, A 2.85, D 2.95, Y 2.62, F 1.43, T 1.91, N 2.09, I 1.34, L 1.38, H 1.95, Q 1.81, G 2.19, C 3.07, K 1.5, E 2.57, V 1.87
Q14: L 1.65, C 2.21, R 2.01, K 2.35, D 2.33, F 1.99, M 1.32, A 2.04, P 2.34, I 1.55, H 1.6, N 2.05
E8: N 1.9, I 2.73, G 1.42, P 2.47, H 1.78, T 1.34, V 1.32, Y 2.88, C 2.07, R 2.02, S 2.03, W 2.41, L 2.02, D 1.8, A 1.57, K 2.28, F 3.87, Q 1.59
E9: A 2.02, N 1.95, K 1, T 2.17, M 3.34, S 1.45, C 2.73, F 3.74, P 2.26, G 1.54, D 2.21, R 1.89, H 2.1, Q 1.47
